Here are results for 1 molecule from patent US7960155B1, “Cytochrome p450 monooxygenases and their use for oxidizing organic compounds” (BASF Aktiengesellschaft, priority 1999, dated 2011).

The test system of this data set is blue pigment (indigo/indirubin) production. To be noted: 2-liter flask containing 300 ml of TB medium for the triple mutant.

B1: WT: wild-type cytochrome P450 monooxygenase BM-3 from Bacillus megaterium (SEQ ID NO:2) (protein, listed as Bacillus megaterium)
chain: TIKEMPQPKTFGELKNLPLLNTDKPVQALMKIADELGEIFKFEAPGRVTRYLSSQRLIKEACDESRFDKNLSQALKFVRDFAGDGLFTSWTHEKNWKKAHNILLPSFSQQAMKGYHAMMVDIAVQLVQKWERLNADEHIEVPEDMTRLTLDTIGLCGFNYRFNSFYRDQPHPFITSMVRALDEAMNKLQRANPDDPAYDENKRQFQEDIKVMNDLVDKIIADRKASGEQSDDLLTHMLNGKDPETGEPLDDENIRYQIITFLIAGHETTSGLLSFALYFLVKNPHVLQKAAEEAARVLVDPVPSYKQVKQLKYVGMVLNEALRLWPTAPAFSLYAKEDTVLGGEYPLEKGDELMVLIPQLHRDKTIWGDDVEEFRPERFENPSAIPQHAFKPFGNGQRACIGQQFALHEATLVLGMMLKHFDFEDHTNYELDIKETLTLKPEGFVVKAKSKKIPLGGIPSPSTEQSAKKVRKKAENAHNTPLLVLYGSNMGTAEGTARDLADIAMSKGFAPQVATLDSHAGNLPREGAVLIVTASYNGHPPDNAKQFVDWLDQASADEVKGVRYSVFGCGDKNWATTYQKVPAFIDETLAAKGAENIADRGEADASDDFEGTYEEWREHMWSDVAAYFNLDIENSEDNKSTLSLQFVDSAADMPLAKMHGAFSTNVVASKELQQPGSARSTRHLEIELPKEASYQEGDHLGVIPRNYEGIVNRVTARFGLDASQQIRLEAEEEKLAHLPLAKTVSVEELLQYVELQDPVTRTQLRAMAAKTVCPPHKVELEALLEKQAYKEQVLAKRLTMLELLEKYPACEMKFSEFIALLPSIRPRYYSISSSPRVDEKQASITVSVVSGEAWSGYGEYKGIASNYLAELQEGDTITCFISTPQSEFTLPKDPETPLIMVGPGTGVAPFRGFVQARKQLKEQGQSLGEAHLYFGCRSPHEDYLYQEELENAQSEGIITLHTAFSRMPNQPKTYVQHVMEQDGKKLIELLDQGAHFYICGDGSQMAPAVEATLMKSYADVHQVSEADARLWLQQLEEKGRYAKDVWAG
Consider B1, for which the “blue pigment production in culture” value was “does not have the ability to produce the blue indigo-containing pigment”.
